Results as given in publication PMC10583499.

Target: human NRP2 (v2, NM_003872.3), untagged, stably overexpressed on Expi293F cells (Expi293F-hNRP2) (human) (UniProt O60462)
Experiment: flow cytometry on cells

human Sema3F (amino acids 19 to 779), N-terminal 6xHis-Myc tag, R583A R586A (from UniProt Q13275 19-779) (ligand)
EC50: 5.7 nM
